Experimental data: publication PMC5551578 (2017)

T1: tetanus toxoid (UniProt P04958 1-1315)
T1 chain: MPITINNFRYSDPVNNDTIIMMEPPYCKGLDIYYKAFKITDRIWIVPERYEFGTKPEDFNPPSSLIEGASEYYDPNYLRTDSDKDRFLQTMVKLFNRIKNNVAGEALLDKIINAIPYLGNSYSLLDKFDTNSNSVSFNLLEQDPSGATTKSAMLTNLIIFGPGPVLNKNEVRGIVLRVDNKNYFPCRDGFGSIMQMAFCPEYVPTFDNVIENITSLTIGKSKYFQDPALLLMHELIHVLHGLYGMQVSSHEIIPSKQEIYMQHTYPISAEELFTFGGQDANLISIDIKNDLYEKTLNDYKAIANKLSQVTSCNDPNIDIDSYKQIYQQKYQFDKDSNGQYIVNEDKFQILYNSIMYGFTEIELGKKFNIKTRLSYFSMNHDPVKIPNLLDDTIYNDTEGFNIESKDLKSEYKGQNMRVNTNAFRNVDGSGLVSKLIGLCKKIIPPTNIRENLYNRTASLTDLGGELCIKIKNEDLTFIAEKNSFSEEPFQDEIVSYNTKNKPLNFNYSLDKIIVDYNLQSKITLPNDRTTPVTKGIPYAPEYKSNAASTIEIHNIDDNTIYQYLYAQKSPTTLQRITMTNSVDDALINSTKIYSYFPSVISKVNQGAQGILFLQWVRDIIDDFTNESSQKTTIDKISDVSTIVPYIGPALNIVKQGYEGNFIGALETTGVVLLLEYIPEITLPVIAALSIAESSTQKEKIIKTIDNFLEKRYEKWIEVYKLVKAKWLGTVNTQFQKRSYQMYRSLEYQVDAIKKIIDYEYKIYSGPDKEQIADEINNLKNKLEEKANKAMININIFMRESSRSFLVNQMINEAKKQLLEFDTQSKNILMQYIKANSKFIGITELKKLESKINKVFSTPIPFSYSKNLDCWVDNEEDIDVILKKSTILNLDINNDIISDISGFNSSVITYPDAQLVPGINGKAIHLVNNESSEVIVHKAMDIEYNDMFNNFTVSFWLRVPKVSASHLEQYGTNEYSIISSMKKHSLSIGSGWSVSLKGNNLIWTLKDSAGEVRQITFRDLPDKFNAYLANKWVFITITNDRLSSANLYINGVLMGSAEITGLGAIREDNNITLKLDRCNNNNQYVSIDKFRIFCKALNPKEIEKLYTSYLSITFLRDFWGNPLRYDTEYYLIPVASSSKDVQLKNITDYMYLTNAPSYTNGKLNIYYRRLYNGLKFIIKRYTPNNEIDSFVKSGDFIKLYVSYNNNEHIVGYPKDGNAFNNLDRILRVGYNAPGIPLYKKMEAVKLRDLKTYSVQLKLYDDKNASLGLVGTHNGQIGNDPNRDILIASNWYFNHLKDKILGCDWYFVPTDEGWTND

B1: TT-Ab12 (antibody, V domains shown)
VH: QVQLQESGPGLVKPSETLSLTCNVSGASISRYYWAWIRQPPGKGLEWIGYIYDSGTTTYNTSLKSRVTISRDTSKNQFSLNMMSVTAADTAVYYCARARYYYDSTGYFYGWLDPWGQGRLVTVSF
VL: DIQMTQSPSTLSASVGDRVTITCRASQSINIWLAWYQQRPGKAPDLLIYKASTLQSGVPSRFSGSGSGTEFTLTISSVQPDDFATYYCQQYKSYSCSFGQGTKVEIN
B2: TT-Ab10 (antibody, V domains shown)
VH: EVQLVESGGGLVQPGGSLRVSCGASGFTFANFWMSWVRQAPGKGLEWVANINQDGNERKYVDSVKGRFTISRDNDKNSLYLQMNSLRAEDTAVYFCAREYGSYWRTYYFDDWGQGTLVTVSS
VL: DIVMTQSPATLSLSPGERATLSCRASQSVSNYLAWYQQKPGQAPRLLIYDASNRASGTPARFSGSGFGTDFTLTISSLDPEDFAVYYCQQGSNWLTFGGGTKVEIK
B3: TT-Ab7 (antibody, V domains shown)
VH: EVQLVESGGGWVQPGGSLRLSCAASGFTFNSFGSYGMSWVRQAPGKGLEWVSHISASGAATYYADSVKGRFTISRDNSKNTLLLQMNDLRGEDTATYYCARSVQQYLGLLGYWGQGTLVTVSS
VL: QSVLTQSPSASASLGATVKLTCTLSSGHTNYAIAWHQLQPQKAPRYLLKISNDGSHKRGDGIPDRFSGSSSGAERYLTISSLQSEDEAEYYCQTWGAGMGMFGGGTKLTVL
B4: TT-Ab9 (antibody, V domains shown)
VH: EVQLVESGGSLVQPGGSLRLSCVGTGFTFNTYWMSWVRQAPGKGLEWVANIKQDGREKHYVDSVMGRFTVSRDNAMNALYLQVNSLRVEDTAVYYCARGMTAWSLGGYQYDYWGQGTQVTVSS
VL: DIQMTQSPSSLSASVGDTVTITCRASQGIRSDLGWYQQRPGKAPKLLVYTASTLQTGVPSRFSGSGFGTDFTLTISSLQPEDFATYYCLQNYNYPRTFGQGTKVEIK
B5: TT-Ab4 (antibody, V domains shown)
VH: EVQLVQSGAEMKKPGSSVKVSCRMSGGKFNNYAMSWVRQAPGQGLEWVGGIIPVLGTANYAQKFQDRVAITADKSTNTAYMELSSLRSDDTAVYYCARVWGTVVTQGPSQVQYNHYGMDVWGQGTTVTVSS
VL: DIQLTQSPSSLSASVGDRVTITCRATQSISSSLNWYQHKPGKAPNLLISAASNLQSGVPSRFSGSGSRTDFTLTITNLQPEDFATYYCQQSYTTPLTFGGGTKVEIK

Target: T1, tetanus toxoid
Assay: ELISA

Binder | EC50 [nM]
B1 | 228
B2 | 869
B3 | 655
B4 | 1050
B5 | 1060
